Reference: US20100169988A1 (published 2010)
Each block holds one binder with its values, some of them ahead of it.

Target: APP-TAP-AICD (human, UniProt P05067 18-695)
Test: streptavidin purification of APP-TAP-AICD from brain homogenate; iTRAQ 116/114, transgenic mouse 75 vs control mouse 72; MALDI-TOF/TOF;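 further: relative protein abundance in the transgenic versus control pull-down, limited to proteins with high quality scores and above-average enrichment, without full normalization across the whole measurement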
Source text: Shown are all proteins that have high quality scores and are enriched above average in the m75 sample. Purified bait protein is given underlined. Other already known interaction partners of AICD or putatively biologically relevant proteins are given in bold. As full normalization over the entire measurement was not possible through the GPS explorer software suite, this conservative estimate had to be taken for determining the enriched vs. the non-enriched proteins. […] Ranking is in order of abundance ratio.

B2: Glutamine synthetase (Glutamate-ammonia ligase) (enzyme, mouse, UniProt P15105 2-373, looked up)
chain: ATSASSHLNKGIKQMYMSLPQGEKVQAMYIWVDGTGEGLRCKTRTLDCEPKCVEELPEWNFDGSSTFQSEGSNSDMYLHPVAMFRDPFRKDPNKLVLCEVFKYNRKPAETNLRHICKRIMDMVSNQHPWFGMEQEYTLMGTDGHPFGWPSNGFPGPQGPYYCGVGADKAYGRDIVEAHYRACLYAGVKITGTNAEVMPAQWEFQIGPCEGIRMGDHLWIARFILHRVCEDFGVIATFDPKPIPGNWNGAGCHTNFSTKAMREENGLKCIEEAIDKLSKRHQYHIRAYDPKGGLDNARRLTGFHETSNINDFSAGVANRGASIRIPRTVGQEKKGYFEDRRPSANCDPYAVTEAIVRTCLLNETGDEPFQYKN
iTRAQ ratio: 3.76

B3: Alpha enolase (2-phospho-D-glycerate hydro-lyase) (Non-neural enolase) (NNE) (enzyme, mouse, UniProt P17182 2-434, looked up)
chain: SILRIHAREIFDSRGNPTVEVDLYTAKGLFRAAVPSGASTGIYEALELRDNDKTRFMGKGVSQAVEHINKTIAPALVSKKVNVVEQEKIDKLMIEMDGTENKSKFGANAILGVSLAVCKAGAVEKGVPLYRHIADLAGNPEVILPVPAFNVINGGSHAGNKLAMQEFMILPVGASSFREAMRIGAEVYHNLKNVIKEKYGKDATNVGDEGGFAPNILENKEALELLKTAIAKAGYTDQVVIGMDVAASEFYRSGKYDLDFKSPDDPSRYITPDQLADLYKSFVQNYPVVSIEDPFDQDDWGAWQKFTASAGIQVVGDDLTVTNPKRIAKAASEKSCNCLLLKVNQIGSVTESLQACKLAQSNGWGVMVSHRSGETEDTFIADLVVGLCTGQIKTGAPCRSERLAKYNQILRIEEELGSKAKFAGRSFRNPLAK
iTRAQ ratio: 3.9

B4: Aspartate aminotransferase; mitochondrial precursor (Transaminase A) (enzyme, mouse, UniProt P05202 30-430, looked up)
chain: SSWWTHVEMGPPDPILGVTEAFKRDTNSKKMNLGVGAYRDDNGKPYVLPSVRKAEAQIAAKNLDKEYLPIGGLAEFCKASAELALGENNEVLKSGRFVTVQTISGTGALRVGASFLQRFFKFSRDVFLPKPSWGNHTPIFRDAGMQLQGYRYYDPKTCGFDFSGALEDISKIPEQSVLLLHACAHNPTGVDPRPEQWKEIASVVKKKNLFAFFDMAYQGFASGDGDKDAWAVRHFIEQGINVCLCQSYAKNMGLYGERVGAFTVVCKDAEEAKRVESQLKILIRPLYSNPPLNGARIAATILTSPDLRKQWLQEVKGMADRIISMRTQLVSNLKKEGSSHNWQHITDQIGMFCFTGLKPEQVERLTKEFSVYMTKDGRISVAGVTSGNVGYLAHAIHQVTK
iTRAQ ratio: 3.51

B5: Clathrin light chain A (Lca) (other, mouse, UniProt O08585 1-235, looked up)
chain: MAELDPFGAPAGAPGGPALGNGVAGAGEEDPAAAFLAQQESEIAGIENDEAFAILDGGAPGRATRRAAGGPDAVDGVMNGEYYQESNGPTDSYAAISEVDRLQSEPESIRKWREEQTERLEALDANSRKQEAEWKEKAIKELEEWYARQDEQLQKTKANNRVADEAFYKQPFADLIGYVAAEEAFVNDIDESSPGTEWERVARLCDFNPKSSKQAKDVSRMRSVLISLKQAPLVH
iTRAQ ratio: 3.98

B6: Excitatory amino acid transporter 2 (Sodium-dependent glutamate/aspartate transporter 2) (other, mouse, UniProt P43006 1-572, looked up)
chain: MASTEGANNMPKQVEVRMHDSHLSSDEPKHRNLGMRMCDKLGKNLLLSLTVFGVILGAVCGGLLRLASPIHPDVVMLIAFPGDILMRMLKMLILPLIISSLITGLSGLDAKASGRLGTRAMVYYMSTTIIAAVLGVILVLAIHPGNPKLKKQLGPGKKNDEVSSLDAFLDLIRNLFPENLVQACFQQIQTVTKKVLVAPPSEEANTTKAVISMLNETMNEAPEETKIVIKKGLEFKDGMNVLGLIGFFIAFGIAMGKMGEQAKLMVEFFNILNEIVMKLVIMIMWYSPLGIACLICGKIIAIKDLEVVARQLGMYMITVIVGLIIHGGIFLPLIYFVVTRKNPFSFFAGIFQAWITALGTASSAGTLPVTFRCLEDNLGIDKRVTRFVLPVGATINMDGTALYEAVAAIFIAQMNGVILDGGQIVTVSLTATLASIGAASIPSAGLVTMLLILTAVGLPTEDISLLVAVDWLLDRMRTSVNVVGDSFGAGIVYHLSKSELDTIDSQHRMQEDIEMTKTQSIYDDKNHRESNSNQCVYAAHNSVVIDECKVTLAANGKSADCSVEEEPWKREK
notes: also called EAA2_MOUSE; GLT-1
iTRAQ ratio: 4.44

B8: Fructose-bisphosphate aldolase C (Brain-type aldolase) (Aldolase 3) (enzyme, mouse, UniProt P05063 2-363, looked up)
chain: PHSYPALSAEQKKELSDIALRIVTPGKGILAADESVGSMAKRLSQIGVENTEENRRLYRQVLFSADDRVKKCIGGVIFFHETLYQKDDNGVPFVRTIQDKGILVGIKVDKGVVPLAGTDGETTTQGLDGLLERCAQYKKDGADFAKWRCVLKISDRTPSALAILENANVLARYASICQQNGIVPIVEPEILPDGDHDLKRCQYVTEKVLAAVYKALSDHHVYLEGTLLKPNMVTPGHACPIKYSPEEIAMATVTALRRTVPPAVPGVTFLSGGQSEEEASLNLNAINRCPLPRPWALTFSYGRALQASALNAWRGQRDNAGAATEEFIKRAEMNGLAAQGRYEGSGDGGAAAQSLYIANHAY
iTRAQ ratio: 3.77

B9: ATP synthase gamma chain; mitochondrial precursor (enzyme, mouse, UniProt Q91VR2 26-298, looked up)
chain: ATLKDITRRLKSIKNIQKITKSMKMVAAAKYARAERELKPARVYGTGSLALYEKADIKAPEDKKKHLIIGVSSDRGLCGAIHSSVAKQMKNEVAALTAAGKEVMIVGVGEKIKGILYRTHSDQFLVSFKDVGRKPPTFGDASVIALELLNSGYEFDEGSIIFNQFKSVISYKTEEKPIFSLNTIATAETMSIYDDIDADVLQNYQEYNLANLIYYSLKESTTSEQSARMTAMDNASKNASDMIDKLTLTFNRTRQAVITKELIEIISGAAALD
iTRAQ ratio: 3.98

B12: L-lactate dehydrogenase B chain (LDH-B) (LDH heart subunit) (enzyme)
chain: not shown
iTRAQ ratio: 3.99

B16: Aspartate aminotransferase; cytoplasmic (Transaminase A) (enzyme, mouse, UniProt P05201 2-413, looked up)
chain: APPSVFAQVPQAPPVLVFKLTADFRDDPDPRKVNLGVGAYRTDESQPWVLPVVRKVEQKIANDNSLNHEYLPILGLAEFRSCASRLVLGDNSLAIRENRVGGVQSLGGTGALRIGADFLGRWYNGTDNKNTPIYVSSPTWENHNAVFSAAGFKDIRPYCYWDAEKRGLDLQGFLNDLENAPEFSIFVLHACAHNPTGTDPTPEQWKQIAAVMQRRFLFPFFDSAYQGFASGDLEKDAWAIRYFVSEGFELFCAQSFSKNFGLYNERVGNLTVVGKESDSVLRVLSQMEKIVRITWSNPPAQGARIVAATLSDPELFKEWKGNVKTMADRILTMRSELRARLEALKTPGTWSHITEQIGMFSFTGLNPKQVEYLVNEKHIYLLPSGRINMCGLTTKNLDYVATSIHEAVTKIQ
iTRAQ ratio: 4.04

B17: Creatine kinase; B chain (enzyme)
chain: not shown
iTRAQ ratio: 5.32

B18: Glyceraldehyde-3-phosphate dehydrogenase (GAPDH) (enzyme)
chain: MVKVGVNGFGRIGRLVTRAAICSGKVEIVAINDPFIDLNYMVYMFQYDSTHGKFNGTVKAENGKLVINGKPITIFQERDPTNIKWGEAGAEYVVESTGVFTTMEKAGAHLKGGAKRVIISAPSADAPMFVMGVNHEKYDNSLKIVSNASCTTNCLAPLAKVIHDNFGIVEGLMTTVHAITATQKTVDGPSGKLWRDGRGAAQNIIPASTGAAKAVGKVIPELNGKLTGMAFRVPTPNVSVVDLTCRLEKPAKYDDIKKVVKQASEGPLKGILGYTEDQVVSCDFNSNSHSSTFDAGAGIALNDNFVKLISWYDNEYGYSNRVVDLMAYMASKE
iTRAQ ratio: 4.54

The remaining lines, values ahead:

iTRAQ ratio: 3.81
B1: Vacuolar ATP synthase catalytic subunit A; ubiquitous isoform (enzyme)
chain: MDFSKLPKIRDEDKESTFGYVHGVSGPVVTACDMAGAAMYELVRVGHSELVGEIIRLEGDMATIQVYEETSGVSVGDPVLRTGKPLSVELGPGIMGAIFDGIQRPLSDISSQTQSIYIPRGVNVSALSRDIKWEFIPSKNLRVGSHITGGDIYGIVNENSLIKHKIMLPPRNRGSVTYIAPPGNYDASDVVLELEFEGVKEKFSMVQVWPVRQVRPVTEKLPANHPLLTGQRVLDALFPCVQGGTTAIPGAFGCGKTVISQSLSKYSNSDVIIYVGCGERGNEMSEVLRDFPELTMEVDGKVESIMKRTALVANTSNMPVAAREASIYTGITLSEYFRDMGYHVSMMADSTSRWAEALREISGRLAEMPADSGYPAYLGARLASFYERAGRVKCLGNPEREGSVSIVGAVSPPGGDFSDPVTSATLGIVQVFWGLDKKLAQRKHFPSVNWLISYSKYMRALDEYYDKHFTEFVPLRTKAKEILQEEEDLAEIVQLVGKASLAETDKITLEVAKLIKDDFLQQNGYTPYDRFCPFYKTVGMLSNMISFYDMARRAVETTAQSDNKITWSIIREHMGEILYKLSSMKFKDPVKDGEAKIKADYAQLLEDMQNAFRSLED
notes: also called VATA1_MOUSE

iTRAQ ratio: 4.61
B7: Triosephosphate isomerase (TIM) (Triose-phosphate isomerase) (enzyme, mouse, UniProt P17751 2-249, looked up)
chain: APTRKFFVGGNWKMNGRKKCLGELICTLNAANVPAGTEVVCAPPTAYIDFARQKLDPKIAVAAQNCYKVTNGAFTGEISPGMIKDLGATWVVLGHSERRHVFGESDELIGQKVSHALAEGLGVIACIGEKLDEREAGITEKVVFEQTKVIADNVKDWSKVVLAYEPVWAIGTGKTATPQQAQEVHEKLRGWLKSNVNDGVAQSTRIIYGGSVTGATCKELASQPDVDGFLVGGASLKPEFVDIINAKQ

iTRAQ ratio: 5.96
B10: Malate dehydrogenase; cytoplasmic (enzyme, mouse, UniProt P14152 2-334, looked up)
chain: SEPIRVLVTGAAGQIAYSLLYSIGNGSVFGKDQPIILVLLDITPMMGVLDGVLMELQDCALPLLQDVIATDKEEIAFKDLDVAVLVGSMPRREGMERKDLLKANVKIFKSQGTALEKYAKKSVKVIVVGNPANTNCLTASKSAPSIPKENFSCLTRLDHNRAKSQIALKLGVTADDVKNVIIWGNHSSTQYPDVNHAKVKLQGKEVGVYEALKDDSWLKGEFITTVQQRGAAVIKARKLSSAMSAAKAIADHIRDIWFGTPEGEFVSMGVISDGNSYGVPDDLLYSFPVVIKNKTWKFVEGLPINDFSREKMDLTAKELTEEKETAFEFLSSA

iTRAQ ratio: 3.82
B11: Synaptotagmin-1 (Synaptotagmin I) (SytI) (p65) (other, mouse, UniProt P46096 1-421, looked up)
chain: MVSASRPEALAAPVTTVATLVPHNATEPASPGEGKEDAFSKLKQKFMNELHKIPLPPWALIAIAIVAVLLVVTCCFCVCKKCLFKKKNKKKGKEKGGKNAINMKDVKDLGKTMKDQALKDDDAETGLTDGEEKEEPKEEEKLGKLQYSLDYDFQNNQLLVGIIQAAELPALDMGGTSDPYVKVFLLPDKKKKFETKVHRKTLNPVFNEQFTFKVPYSELGGKTLVMAVYDFDRFSKHDIIGEFKVPMNTVDFGHVTEEWRDLQSAEKEEQEKLGDICFSLRYVPTAGKLTVVILEAKNLKKMDVGGLSDPYVKIHLMQNGKRLKKKKTTIKKNTLNPYYNESFSFEVPFEQIQKVQVVVTVLDYDKIGKNDAIGKVFVGYNSTGAELRHWSDMLANPRRPIAQWHTLQVEEEVDAMLAVKK
notes: also called SYT1_MOUSE

iTRAQ ratio: 4.68
B13: Ubiquitin carboxyl-terminal hydrolase isozyme L1 (UCH-L1) (enzyme, mouse, UniProt Q9R0P9 1-220, looked up)
chain: MQLKPMEINPEMLNKVLAKLGVAGQWRFADVLGLEEETLGSVPSPACALLLLFPLTAQHENFRKKQIEELKGQEVSPKVYFMKQTIGNSCGTIGLIHAVANNQDKLEFEDGSVLKQFLSETEKLSPEDRAKCFEKNEAIQAAHDSVAQEGQCRVDDKVNFHFILFNNVDGHLYELDGRMPFPVNHGASSEDSLLQDAAKVCREFTEREQGEVRFSAVALC
notes: also called UCHL1_MOUSE

iTRAQ ratio: 4.71
B14: Pyruvate kinase; isozyme M2 (enzyme)
chain: not shown
notes: also called pyruvate kinase isozyme M1/2

iTRAQ ratio: 4.61
B15: Phosphate carrier protein; mitochondrial precursor (PTP) (other, mouse, UniProt Q8VEM8 46-357, looked up)
chain: AVEEYSCEFGSMKYYALCGFGGVLSCGLTHTAVVPLDLVKCRMQVDPQKYKGIFNGFSITLKEDGVRGLAKGWAPTLIGYSMQGLCKFGFYEVFKALYSNILGEENTYLWRTSLYLASSASAEFFADIALAPMEAAKVRIQTQPGYANTLREAVPKMYKEEGLNAFYKGVAPLWMRQIPYTMMKFACFERTVEALYKFVVPKPRSECTKAEQLVVTFVAGYIAGVFCAIVSHPADSVVSVLNKEKGSTASQVLQRLGFRGVWKGLFARIIMIGTLTALQWFIYDSVKVYFRLPRPPPPEMPESLKKKLGLTE
